{
  "source": "paper doi:10.1101/2023.05.05.539533",
  "about": "(bioRxiv, 2023)",
  "molecules": {"B1": {"name": "RCN1 (purified from E. coli) (natural protein)", "chain": "MAMVDEPLYPIAVLIDELKNDDIQLRLNSIRRLSTIARALGEERTRKELIPFLSENSDDDDEVLLAMAEELGVFIPFVGGIEFAHVLLPPLESLCTVEETCVREKAVESLCKIGSQMKENDLVESFVPLVKRLAGGEWFAARVSACGIFHVAYQGCTDVLKTELRATYSQLCKDDMPMVRRAAASNLGKFATTVESTFLIAEIMTMFDDLTKDDQDSVRLLAVEGCAALGKLLEPQDCVARILPVIVNFSQDKSWRVRYMVANQLYELCEAVGPDCTRTDLVPAYVRLLRDNEAEVRIAAAGKVTKFCRLLNPELAIQHILPCVKELSSDSSQHVRSALASVIMGMAPILGKDSTIEHLLPIFLSLLKDEFPDVRLNIISKLDQVNQVIGIDLLSQSLLPAIVELAEDRHWRVRLAIIEYVPLLASQLGIGFFDDKLGALCMQWLQDKVYSIREAAANNLKRLAEEFGPEWAMQHLVPQVLDMVNNPHYLHRMMVLRAISLMAPVMGSEITCSKFLPVVVEASKDRVPNIKFNVAKLLQSLIPIVDQSVVDKTIRQCLVDLSEDPDVDVRYFANQALNSIDGSTAAQS"}},
  "key": {"[1]": {"target": "PSR2 (untagged, purified from E. coli) (P. sojae) (UniProt E0W4V5)", "assay": "ITC"}, "[2]": {"target": "ATB’g (Arabidopsis PP2A B subunit) (Arabidopsis thaliana) (UniProt Q8RW96)", "sequence (Q8RW96 whole entry)": "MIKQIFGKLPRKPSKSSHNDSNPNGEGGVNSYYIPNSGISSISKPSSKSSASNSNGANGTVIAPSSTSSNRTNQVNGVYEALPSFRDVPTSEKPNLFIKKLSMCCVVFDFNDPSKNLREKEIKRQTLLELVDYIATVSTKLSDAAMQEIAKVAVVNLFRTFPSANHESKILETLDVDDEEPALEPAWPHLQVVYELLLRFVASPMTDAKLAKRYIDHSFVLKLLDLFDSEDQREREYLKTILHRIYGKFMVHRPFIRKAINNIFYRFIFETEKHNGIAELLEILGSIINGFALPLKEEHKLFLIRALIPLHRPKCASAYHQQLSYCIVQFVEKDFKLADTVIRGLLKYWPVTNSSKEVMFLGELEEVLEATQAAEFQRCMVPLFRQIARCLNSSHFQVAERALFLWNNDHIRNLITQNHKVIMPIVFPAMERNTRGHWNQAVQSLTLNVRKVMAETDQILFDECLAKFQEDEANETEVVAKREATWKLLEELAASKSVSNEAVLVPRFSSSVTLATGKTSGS", "assay": "ITC"}, "[3]": {"target": "T1, PSR2 (untagged, purified from E. coli) (P. sojae, UniProt E0W4V5 18-670)", "T1 sequence": "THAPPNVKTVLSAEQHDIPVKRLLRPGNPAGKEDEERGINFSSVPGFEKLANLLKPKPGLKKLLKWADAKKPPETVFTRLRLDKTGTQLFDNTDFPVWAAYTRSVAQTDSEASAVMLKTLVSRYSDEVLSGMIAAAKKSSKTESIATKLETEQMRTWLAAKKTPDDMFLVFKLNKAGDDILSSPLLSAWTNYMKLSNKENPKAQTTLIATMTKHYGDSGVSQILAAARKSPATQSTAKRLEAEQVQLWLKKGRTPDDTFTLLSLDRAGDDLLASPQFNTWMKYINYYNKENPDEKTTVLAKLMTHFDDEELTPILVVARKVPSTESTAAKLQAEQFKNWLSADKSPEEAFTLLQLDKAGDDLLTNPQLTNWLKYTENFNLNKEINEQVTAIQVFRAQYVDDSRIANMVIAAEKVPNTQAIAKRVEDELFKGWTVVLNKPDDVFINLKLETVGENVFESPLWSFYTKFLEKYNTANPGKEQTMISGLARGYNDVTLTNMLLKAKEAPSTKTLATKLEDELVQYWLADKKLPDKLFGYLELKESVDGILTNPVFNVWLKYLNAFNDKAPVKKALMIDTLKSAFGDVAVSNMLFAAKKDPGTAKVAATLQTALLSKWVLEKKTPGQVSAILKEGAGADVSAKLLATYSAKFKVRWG", "assay": "pull-down"}},
  "data": [
    {"molecule": "6×His-PDF1 (full-length PDF1, purified from E. coli) (from UniProt Q9S728 24-306) (natural protein)", "values": [
      {"measurement": "Kd", "setting": "[1]", "value": 0.35, "unit": "µM"},
      {"measurement": "Kd", "setting": "[2]", "value": 3.33, "unit": "µM"}
    ]},
    {"molecule": "B1", "values": [
      {"measurement": "binding result", "setting": "[3]", "value": "binds"}
    ]}
  ]
}
